In patent US20220041723A1 (published 2022):
Where two headings read alike, the source gives them in different places.

What was measured:
[1] = biological target: T1, human CTLA-4 expressed on cells (293T cells stably transfected with human CTLA-4); in vitro-activated human … (human, UniProt P16410 36-223); assay: FACS
[2] = biological target: T1, human CTLA-4 expressed on cells (293T …); assay: FACS; remark: listed apart in the source

B1: 4-E03 (antibody, V domains shown)
VH: EVQLLESGGGLVQPGGSLRLSCAASGFTFSDYYMSWVRQAPGKGLEWVSGISWSSRDKGYADSVKGRFTISRDNSKNTLYLQMNSLRAEDTAVYYCTTDLARYWGQGTLVTVSS
VL: QSVLTQPPSASGTPGQRVTISCTGSSSNIGAGYDVHWYQQLPGTAPKLLIYGNDNRPSGVPDRFSGSKSGTSASLAISGLRSEDEADYYCAVWDDSLNGVVFGGGTKLTVLG
[1]
  EC50: 130 pM

B2: 2-C06 (antibody, V domains shown)
VH: EVQLLESGGGLVQPGGSLRLSCAASGFTFSSYAMSWVRQAPGKGLEWVSGISGSGGYIHYADSVKGRFTISRDNSKNTLYLQMNSLRAEDTAVYYCATYSSGLHDAFDIWGQGTLVTVSS
VL: QSVLTQPPSASGTPGQRVTISCTGSSSNIGAGYDVHWYQQLPGTAPKLLIYDNNKRPSGVPDRFSGSKSGTSASLAISGLRSEDEADYYCAAWDDSLNGWVFGGGTKLTVLG
[1]
  EC50: 100 pM

B3: 5-B07 (antibody, V domains shown)
VH: EVQLLESGGGLVQPGGSLRLSCAASGFTFSSYSMNWVRQAPGKGLEWVSAISGSGGSTYYADSVKGRFTISRDNSKNTLYLQMNSLRAEDTAVYYCARDRVEMNQWLADWGQGTLVTVSS
VL: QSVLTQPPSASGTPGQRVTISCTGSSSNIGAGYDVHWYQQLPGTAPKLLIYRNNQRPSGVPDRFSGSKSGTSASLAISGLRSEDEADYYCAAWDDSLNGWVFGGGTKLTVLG
[1]
  EC50: 150 pM

B4: 2-F09 (antibody, V domains shown)
VH: EVQLLESGGGLVQPGGSLRLSCAASGFTFKAYSMSWIRQAPGKGLEWVSGISNTGGSTDFADSVKGRFTISRDNSKNTLYLQMNSLRAEDTAMYYCARLGYSGYDDRGMDVWGQGTLVTVSS
VL: QSVLTQPPSASGTPGQRVTISCSGSSSNIGSNYVYWYQQLPGTAPKLLIYGNSNRPSGVPDRFSGSKSGTSASLAISGLRSEDEADYYCQSYDSSLSGPVVFGGGTKLTVLG
[2]
  EC50: 190 pM
